Measured values published in paper doi:10.1101/2022.04.26.489529 (bioRxiv, 2022).

Columns and labels:
[1] = target: S protein of the SARS-CoV-2 strain D614G (SARS-CoV-2, D614G, UniProt A0A6H1PJZ3, D614G); assay: ELISA
[2] = target: stabilized Omicron S ECD HexaPro (SARS-CoV-2 Omicron BA.1, N440K | S477N | T478K | E484A | Q493R); assay: cryo-EM structure

B1: 58G6 (antibody, V domains shown)
VH: QMQLVQSGPEVKKPGTSVKVSCKASGFTFSSSAVQWVRQARGQHLEWIGWIVVGSGNTNYAQKFQERVTLTRDMSTRTAYMELSSLRSEDTAVYYCAAPNCNSTTCHDGFDIWGQGTVVTVSS
VL: EIVLTQSPGTLSLSPGERATLSCRASQSVRSSYLGWYQQKPGQAPRLLIYGASSRATGIPDRFSGSGSGTDFTLTISRLESEDFAVYYCQQYDNSPWTFGQGTKVEIK
B1: binds [1].

B2: 58G6 Fab (Fab, V domains shown)
VH: QMQLVQSGPEVKKPGTSVKVSCKASGFTFSSSAVQWVRQARGQHLEWIGWIVVGSGNTNYAQKFQERVTLTRDMSTRTAYMELSSLRSEDTAVYYCAAPNCNSTTCHDGFDIWGQGTVVTVSS
VL: EIVLTQSPGTLSLSPGERATLSCRASQSVRSSYLGWYQQKPGQAPRLLIYGASSRATGIPDRFSGSGSGTDFTLTISRLESEDFAVYYCQQYDNSPWTFGQGTKVEIK
B2 was tested, and the “stoichiometry N” value [2] was 1 Fab per trimer.
